Laboratory results published in patent publication US20140087995A1 (published 2014).
Numbered stars: 1 amine (or outer) side, 2 acyl side, 3 side chain; on linkers, the order of the positions; unused ones are H or OH. Bridge positions count the residues as written; N and C are the ends. Square brackets hold non-standard residues; d marks the D form. Side chains are listed from the residue outwards. Ends that are not written are not given here. * marks the point of attachment. C20 diacid = O=C(O)CCCCCCCCCCCCCCCCCCC(=O)*; γGlu = O=C(O)[C@H](CCC(=O)[*:2])N[*:1]; C14 diacid = O=C(O)CCCCCCCCCCCCC(=O)*

T1: rat calcitonin receptor (rat, UniProt P32214 25-516)
T1 construct: whole, on cells; Used as membranes prepared from the transfected cells (Assay VIII); also called rCTR; rat calcitonin (a) receptor
T1 sequence (looked up): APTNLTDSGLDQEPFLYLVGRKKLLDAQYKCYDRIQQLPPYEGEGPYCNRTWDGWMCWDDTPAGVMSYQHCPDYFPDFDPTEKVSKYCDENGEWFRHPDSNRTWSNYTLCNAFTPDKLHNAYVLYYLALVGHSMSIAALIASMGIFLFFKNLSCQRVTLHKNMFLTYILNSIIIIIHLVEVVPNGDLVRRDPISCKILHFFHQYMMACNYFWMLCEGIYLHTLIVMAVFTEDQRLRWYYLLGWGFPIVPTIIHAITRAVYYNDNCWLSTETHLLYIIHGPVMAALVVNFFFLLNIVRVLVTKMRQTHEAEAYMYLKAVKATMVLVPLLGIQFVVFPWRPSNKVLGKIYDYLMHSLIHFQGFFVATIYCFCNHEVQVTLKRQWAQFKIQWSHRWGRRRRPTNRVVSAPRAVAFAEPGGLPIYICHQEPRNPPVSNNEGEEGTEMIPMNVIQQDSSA

T2: human calcitonin receptor (human, UniProt P30988 25-474)
T2 construct: whole, on cells; Used as membranes prepared from the transfected cells (Assay VII); also called hCTR; hCT
T2 sequence (looked up): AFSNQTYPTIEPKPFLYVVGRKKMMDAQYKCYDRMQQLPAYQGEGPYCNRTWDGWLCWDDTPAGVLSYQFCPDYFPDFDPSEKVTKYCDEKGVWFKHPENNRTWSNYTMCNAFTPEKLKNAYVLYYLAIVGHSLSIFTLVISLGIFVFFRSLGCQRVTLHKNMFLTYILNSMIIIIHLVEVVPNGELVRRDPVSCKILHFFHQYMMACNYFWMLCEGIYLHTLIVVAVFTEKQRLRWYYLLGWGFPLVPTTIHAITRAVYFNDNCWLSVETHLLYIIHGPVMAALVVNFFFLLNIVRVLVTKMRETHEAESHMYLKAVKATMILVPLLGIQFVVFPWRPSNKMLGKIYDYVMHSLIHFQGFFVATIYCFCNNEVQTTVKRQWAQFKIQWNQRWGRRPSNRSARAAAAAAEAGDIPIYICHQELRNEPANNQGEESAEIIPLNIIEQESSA

T3: rat amylin receptor (rat calcitonin receptor + rat RAMP 3) (rat, UniProt P32214 25-516; Q9JJ73 23-147)
T3 construct: whole, on cells; Used as membranes prepared from the transfected cells (Assay VI); also called rAmylin-R; rat amylin 3(a) receptor
T3 sequence (looked up) 1: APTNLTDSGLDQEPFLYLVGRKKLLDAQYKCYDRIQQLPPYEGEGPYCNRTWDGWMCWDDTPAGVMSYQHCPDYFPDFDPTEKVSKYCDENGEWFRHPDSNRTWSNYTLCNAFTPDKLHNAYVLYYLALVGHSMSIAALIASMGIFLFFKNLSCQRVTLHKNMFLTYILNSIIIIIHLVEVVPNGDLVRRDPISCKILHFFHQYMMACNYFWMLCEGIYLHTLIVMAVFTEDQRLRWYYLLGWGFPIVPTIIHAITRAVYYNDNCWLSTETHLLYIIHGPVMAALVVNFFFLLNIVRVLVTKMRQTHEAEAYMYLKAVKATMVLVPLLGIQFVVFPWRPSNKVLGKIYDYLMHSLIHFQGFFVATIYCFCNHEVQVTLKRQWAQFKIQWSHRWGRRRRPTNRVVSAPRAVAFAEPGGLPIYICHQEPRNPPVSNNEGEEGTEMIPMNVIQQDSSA
T3 sequence (looked up) 2: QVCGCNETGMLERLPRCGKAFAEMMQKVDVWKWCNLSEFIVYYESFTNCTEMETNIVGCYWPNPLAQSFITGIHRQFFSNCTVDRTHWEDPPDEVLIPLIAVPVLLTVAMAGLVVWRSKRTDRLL


Legend:
rat calcitonin receptor [1] = biological target: T1, rat calcitonin receptor; assay: ratio of IC50 on rat calcitonin receptor (Assay VIII) to IC50 on rat amylin receptor (Assay VI)
[2] = biological target: T2, human calcitonin receptor; assay: ratio of IC50 on human calcitonin receptor (Assay VII) to IC50 on human amylin receptor (Assay V)
Description: The resulting pellet was resuspended, homogenized and centrifuged (20.000 rpm, 15 min) in a buffer containing 20 mM Na-HEPES and 0.1 mM EDTA (pH 7.4, buffer 2). The resulting pellet was resuspended in buffer 2 and protein concentration was measured (BCA protein Assay, Pierce). The homogenate was kept cold during the whole procedure. The membranes were kept at −80° C. until use. The assay was performed in a 384 well Optiplate (PerkinElmer) in a total volume of 40 ul. Membranes were mixed with SPA beads. Final concentration of membranes 35 ng/μL final and SPA beads was 0.05 mg/well. Test-compounds were dissolved in DMSO and further diluted in assay buffer (50 mM Hepes, pH 7.4, 1 mM CaCl2, 5 mM MgCl₂, 0.1% OA and 0.02% Tween20). […] The final mixture was incubated with shaking at 400 rpm for 120 min at 25° C. prior to centrifugation (1500 rpm, 10 min). Samples were analyzed on TopCounter™ (Packard). The IC₅₀ was calculated using (one site binding competition analysis) GraphPad Prism5 as a measure of receptor affinity.
Membranes were prepared in the following way; the cells were rinsed with PBS and incubated with Versene for approximately 5 min before harvesting. The cells were flushed with PBS and the cell-suspension was centrifuged for 5 min at 1000 rpm. Cells were homogenized (Ultrathurrax) in a buffer containing 20 mM Na-HEPES and 10 mM EDTA (pH 7.4) and centrifuged at 20.000 rpm for 15 min. The resulting pellet was resuspended, homogenized and centrifuged (20.000 rpm, 15 min) in a buffer containing 20 mM Na-HEPES and 0.1 mM EDTA (pH 7.4, buffer 2). The resulting pellet was resuspended in buffer 2 and protein concentration was measured (BCA protein Assay, Pierce). The homogenate was kept cold during the whole procedure. The membranes were kept at −80° C. until use. Assay was performed in a 384 well Optiplate (PerkinElmer) in a total volume of 40 ul. Membranes were mixed with SPA beads.

rat calcitonin receptor [3] = biological target: T1, rat calcitonin receptor; assay: SPA competition binding, displacement of 125I-calcitonin from membranes of BHK tk'ts 13 cells transfected with rat calcitonin receptor (Assay VIII)
[4] = biological target: T3, rat amylin receptor (rat calcitonin …); assay: SPA competition binding, displacement of 125I-rat amylin from membranes of BHK tk'ts 13 cells transfected with rat calcitonin receptor + rat RAMP 3 (Assay VI)

| Ratio rCT/rAmylin binding (rat calcitonin receptor [1]) | Ratio hCT/hAmylin binding [2] | IC50 (rat calcitonin receptor [3]) | IC50 [4] | Binder |
| --- | --- | --- | --- | --- |
| 129 | 26.5 | 56.3 nM | 0.436 nM | {C20 diacid-γGlu}-GRCNTATCATQRLAAFLRHSSPNFGAIPSSTNVGPNTY-NH2 (disulfide 3-8, not restated for each compound) |
| – | – | 536 nM | 1.69 nM | K([γGlu-γGlu-C20 diacid])CNTATCATQRLA[dD]FLRHSSPNFGAIPSSTNVGSRTY-NH2 (disulfide 2-7; N-terminus assumed; SMILES CC[C@H](C)[C@H](NC(=O)[C@H](C)NC(=O)CNC(=O)[C@H](Cc1ccccc1)NC(=O)[C@H](CC(N)=O)NC(=O)[C@@H]1CCCN1C(=O)[C@H](CO)NC(=O)[C@H](CO)NC(=O)[C@H](Cc1c[nH]cn1)NC(=O)[C@H](CCCNC(=N)N)NC(=O)[C@H](CC(C)C)NC(=O)[C@H](Cc1ccccc1)NC(=O)[C@@H](CC(=O)O)NC(=O)[C@H](C)NC(=O)[C@H](CC(C)C)NC(=O)[C@H](CCCNC(=N)N)NC(=O)[C@H](CCC(N)=O)NC(=O)[C@@H](NC(=O)[C@H](C)NC(=O)[C@@H]1CSSC[C@H](NC(=O)[C@@H](N)CCCCNC(=O)CC[C@H](NC(=O)CC[C@H](NC(=O)CCCCCCCCCCCCCCCCCCC(=O)O)C(=O)O)C(=O)O)C(=O)N[C@@H](CC(N)=O)C(=O)N[C@@H]([C@@H](C)O)C(=O)N[C@@H](C)C(=O)N[C@@H]([C@@H](C)O)C(=O)N1)[C@@H](C)O)C(=O)N1CCC[C@H]1C(=O)N[C@@H](CO)C(=O)N[C@@H](CO)C(=O)N[C@H](C(=O)N[C@@H](CC(N)=O)C(=O)N[C@H](C(=O)NCC(=O)N[C@@H](CO)C(=O)N[C@@H](CCCNC(=N)N)C(=O)N[C@H](C(=O)N[C@@H](Cc1ccc(O)cc1)C(N)=O)[C@@H](C)O)C(C)C)[C@@H](C)O, not restated for each compound) |

More lines, now with the values behind:

| Binder | Ratio rCT/rAmylin binding (rat calcitonin receptor [1]) | Ratio hCT/hAmylin binding [2] | IC50 (rat calcitonin receptor [3]) | IC50 [4] |
| --- | --- | --- | --- | --- |
| {C20 diacid-γGlu}-GRCNTATCATQRLAHFLRHSSPNFGAIPSSTNVGPNTY-NH2 (disulfide 3-8; SMILES CC[C@H](C)[C@H](NC(=O)[C@H](C)NC(=O)CNC(=O)[C@H](Cc1ccccc1)NC(=O)[C@H](CC(N)=O)NC(=O)[C@@H]1CCCN1C(=O)[C@H](CO)NC(=O)[C@H](CO)NC(=O)[C@H](Cc1c[nH]cn1)NC(=O)[C@H](CCCNC(=N)N)NC(=O)[C@H](CC(C)C)NC(=O)[C@H](Cc1ccccc1)NC(=O)[C@H](Cc1c[nH]cn1)NC(=O)[C@H](C)NC(=O)[C@H](CC(C)C)NC(=O)[C@H](CCCNC(=N)N)NC(=O)[C@H](CCC(N)=O)NC(=O)[C@@H](NC(=O)[C@H](C)NC(=O)[C@@H]1CSSC[C@H](NC(=O)[C@H](CCCNC(=N)N)NC(=O)CNC(=O)CC[C@H](NC(=O)CCCCCCCCCCCCCCCCCCC(=O)O)C(=O)O)C(=O)N[C@@H](CC(N)=O)C(=O)N[C@@H]([C@@H](C)O)C(=O)N[C@@H](C)C(=O)N[C@@H]([C@@H](C)O)C(=O)N1)[C@@H](C)O)C(=O)N1CCC[C@H]1C(=O)N[C@@H](CO)C(=O)N[C@@H](CO)C(=O)N[C@H](C(=O)N[C@@H](CC(N)=O)C(=O)N[C@H](C(=O)NCC(=O)N1CCC[C@H]1C(=O)N[C@@H](CC(N)=O)C(=O)N[C@H](C(=O)N[C@@H](Cc1ccc(O)cc1)C(N)=O)[C@@H](C)O)C(C)C)[C@@H](C)O, not restated for each compound) | 97.7 | 36.2 | 65.9 nM | 0.674 nM |
| K([γGlu-γGlu-C20 diacid])CNTATCATQRLAEFLRHSSPNFGAIPSSTNVGPRTY-NH2 (disulfide 2-7; N-terminus assumed; SMILES CC[C@H](C)[C@H](NC(=O)[C@H](C)NC(=O)CNC(=O)[C@H](Cc1ccccc1)NC(=O)[C@H](CC(N)=O)NC(=O)[C@@H]1CCCN1C(=O)[C@H](CO)NC(=O)[C@H](CO)NC(=O)[C@H](Cc1c[nH]cn1)NC(=O)[C@H](CCCNC(=N)N)NC(=O)[C@H](CC(C)C)NC(=O)[C@H](Cc1ccccc1)NC(=O)[C@H](CCC(=O)O)NC(=O)[C@H](C)NC(=O)[C@H](CC(C)C)NC(=O)[C@H](CCCNC(=N)N)NC(=O)[C@H](CCC(N)=O)NC(=O)[C@@H](NC(=O)[C@H](C)NC(=O)[C@@H]1CSSC[C@H](NC(=O)[C@@H](N)CCCCNC(=O)CC[C@H](NC(=O)CC[C@H](NC(=O)CCCCCCCCCCCCCCCCCCC(=O)O)C(=O)O)C(=O)O)C(=O)N[C@@H](CC(N)=O)C(=O)N[C@@H]([C@@H](C)O)C(=O)N[C@@H](C)C(=O)N[C@@H]([C@@H](C)O)C(=O)N1)[C@@H](C)O)C(=O)N1CCC[C@H]1C(=O)N[C@@H](CO)C(=O)N[C@@H](CO)C(=O)N[C@H](C(=O)N[C@@H](CC(N)=O)C(=O)N[C@H](C(=O)NCC(=O)N1CCC[C@H]1C(=O)N[C@@H](CCCNC(=N)N)C(=O)N[C@H](C(=O)N[C@@H](Cc1ccc(O)cc1)C(N)=O)[C@@H](C)O)C(C)C)[C@@H](C)O, not restated for each compound; also called compound 110) | 113 | 53.6 | 38.3 nM | 0.339 nM |
| K([γGlu-C14 diacid])CNTATCATQRLANFLRHSSPNFGAIPSSTNVGHNTY-NH2 (disulfide 2-7; N-terminus assumed; SMILES CC[C@H](C)[C@H](NC(=O)[C@H](C)NC(=O)CNC(=O)[C@H](Cc1ccccc1)NC(=O)[C@H](CC(N)=O)NC(=O)[C@@H]1CCCN1C(=O)[C@H](CO)NC(=O)[C@H](CO)NC(=O)[C@H](Cc1c[nH]cn1)NC(=O)[C@H](CCCNC(=N)N)NC(=O)[C@H](CC(C)C)NC(=O)[C@H](Cc1ccccc1)NC(=O)[C@H](CC(N)=O)NC(=O)[C@H](C)NC(=O)[C@H](CC(C)C)NC(=O)[C@H](CCCNC(=N)N)NC(=O)[C@H](CCC(N)=O)NC(=O)[C@@H](NC(=O)[C@H](C)NC(=O)[C@@H]1CSSC[C@H](NC(=O)[C@@H](N)CCCCNC(=O)CC[C@H](NC(=O)CCCCCCCCCCCCC(=O)O)C(=O)O)C(=O)N[C@@H](CC(N)=O)C(=O)N[C@@H]([C@@H](C)O)C(=O)N[C@@H](C)C(=O)N[C@@H]([C@@H](C)O)C(=O)N1)[C@@H](C)O)C(=O)N1CCC[C@H]1C(=O)N[C@@H](CO)C(=O)N[C@@H](CO)C(=O)N[C@H](C(=O)N[C@@H](CC(N)=O)C(=O)N[C@H](C(=O)NCC(=O)N[C@@H](Cc1c[nH]cn1)C(=O)N[C@@H](CC(N)=O)C(=O)N[C@H](C(=O)N[C@@H](Cc1ccc(O)cc1)C(N)=O)[C@@H](C)O)C(C)C)[C@@H](C)O, not restated for each compound) [N^ε1-[(4S)-4-carboxy-4-(13-carboxytridecanoylamino)butanoyl]-[Arg17,Pro21,Pro27,His34]-h-amylin] | 280 | 23.5 | 707 nM | 2.52 nM |
